Data from publication PMC4686829.

How the values were obtained:
[1] = target: HA glycoprotein of A/goose/Guiyang/337/2006 (H5N1, clade 4) (influenza A virus A/goose/Guiyang/337/2006 (H5N1))
[2] = target: HA glycoprotein of A/silky chicken/Hong Kong/SF189/2001 (H5N1, clade 3) (influenza A virus A/silky chicken/Hong Kong/SF189/2001 (H5N1))
[3] = target: HA glycoprotein of A/Indonesia/5/2005 (H5N1, clade 2.1.3.2) (influenza A virus A/Indonesia/5/2005 (H5N1))
[4] = target: HA glycoprotein of A/goose/Shantou/1621/2005 (H5N1, clade 9) (influenza A virus A/goose/Shantou/1621/2005 (H5N1))
[5] = target: HA glycoprotein of A/Hong Kong/156/1997 (H5N1, clade 0) (influenza A virus A/Hong Kong/156/1997 (H5N1)) (UniProt O56140)
[6] = target: HA glycoprotein of A/Shenzhen/406H/2006 (H5N1, clade 2.3.4) (influenza A virus A/Shenzhen/406H/2006 (H5N1))
[7] = target: HA glycoprotein of A/duck/Guangxi/1378/2004 (H5N1, clade 5) (influenza A virus A/duck/Guangxi/1378/2004 (H5N1))
[8] = target: HA glycoprotein of A/Turkey/65596/2006 (H5N1, clade 2.2.1) (influenza A virus A/Turkey/65596/2006 (H5N1))
[9] = target: HA glycoprotein of A/blackbird/Hunan/1/2004 (H5N1, clade 6) (influenza A virus A/blackbird/Hunan/1/2004 (H5N1))
[10] = target: HA glycoprotein of A/chicken/Korea/es/2003 (H5N1, clade 2.5) (influenza A virus A/chicken/Korea/es/2003 (H5N1))
[11] = target: HA glycoprotein of A/common magpie/Hong Kong/5052/2007 (H5N1, clade 2.3.2.1) (influenza A virus A/common magpie/Hong Kong/5052/2007 (H5N1))
[12] = target: HA glycoprotein of A/chicken/Guangxi/12/2004 (H5N1, clade 2.4) (influenza A virus A/chicken/Guangxi/12/2004 (H5N1))
[13] = target: HA glycoprotein of A/Thailand/(KAN-1)/2004 (H5N1, clade 1) (influenza A virus A/Thailand/(KAN-1)/2004 (H5N1))
[14] = target: HA glycoprotein of A/chicken/Henan/16/2004 (H5N1, clade 8) (influenza A virus A/chicken/Henan/16/2004 (H5N1))
[15] = target: HA glycoprotein of A/Chicken/Vietnam/NCVD-03/08 (H5N1, clade 7.1) (influenza A virus A/Chicken/Vietnam/NCVD-03/08 (H5N1))
[16] = target: HA glycoprotein of A/Chicken/Vietnam /NCVD-16/08 (H5N1, clade 7.1) (influenza A virus A/Chicken/Vietnam/NCVD-16/08 (H5N1))

Substance	IC50 of neutralisation of pseudovirus bearing this HA [1] [µg/mL]	IC50 of neutralisation of pseudovirus bearing this HA [2] [µg/mL]	IC50 of neutralisation of pseudovirus bearing this HA [3] [µg/mL]	IC50 of neutralisation of pseudovirus bearing this HA [4] [µg/mL]	IC50 of neutralisation of pseudovirus bearing this HA [5] [µg/mL]	IC50 of neutralisation of pseudovirus bearing this HA [6] [µg/mL]	IC50 of neutralisation of pseudovirus bearing this HA [7] [µg/mL]	IC50 of neutralisation of pseudovirus bearing this HA [8] [µg/mL]	IC50 of neutralisation of pseudovirus bearing this HA [9] [µg/mL]	IC50 of neutralisation of pseudovirus bearing this HA [10] [µg/mL]	IC50 of neutralisation of pseudovirus bearing this HA [11] [µg/mL]	IC50 of neutralisation of pseudovirus bearing this HA [12] [µg/mL]	IC50 of neutralisation of pseudovirus bearing this HA [13] [µg/mL]	IC50 of neutralisation of pseudovirus bearing this HA [14] [µg/mL]	IC50 of neutralisation of pseudovirus bearing this HA [15] [µg/mL]	IC50 of neutralisation of pseudovirus bearing this HA [16] [µg/mL]
65C6, full-length human IgG1 (antibody)	0.025	0.011	0.004	0.007	0.005	0.02	0.005	0.002	0.007	0.005	0.034	0.005	0.029	0.014	–	–
100F4, full-length human IgG1 (antibody)	0.019	0.022	0.013	0.011	0.05	0.052	0.021	0.004	0.033	0.016	0.066	0.015	0.067	0.036	–	–
AVFluIgG03, full-length human IgG1 (antibody)	–	0.069	4.75	0.018	0.008	0.002	0.009	1.86	0.004	–	–	–	–	–	0.069	0.03
